According to patent US20180273626A1 (Stanford University, published 2018):
Substitutions are numbered along the chain they refer to. In names and notes the source's numbering stands. Each block holds one binder with its values, some of them ahead of it.

Experiments:
CD23 on B cells [1] = target: T1, CD23 on B cells (human, UniProt P06734 1-321); test: summary sentence of Example 1
T1 construct: whole, on cells; also called CD23 receptor; CD23+ B-cells
T1 sequence (looked up): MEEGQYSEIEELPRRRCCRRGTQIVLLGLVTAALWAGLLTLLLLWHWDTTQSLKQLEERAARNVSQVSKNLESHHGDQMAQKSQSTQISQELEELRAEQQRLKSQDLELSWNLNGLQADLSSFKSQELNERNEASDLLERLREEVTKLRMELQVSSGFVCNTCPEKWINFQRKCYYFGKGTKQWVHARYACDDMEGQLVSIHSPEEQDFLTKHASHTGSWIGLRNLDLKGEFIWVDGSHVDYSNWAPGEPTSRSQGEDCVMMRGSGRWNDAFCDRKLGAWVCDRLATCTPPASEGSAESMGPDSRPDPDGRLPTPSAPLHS

[2] = target: T2, FcεRI on primary human basophils (human, UniProt P12319 26-257); test: flow cytometry on primary human basophils, anti-biotin staining
T2 construct: whole, on cells; on cells it stands with gamma chains (and a beta chain); also called FcεRIα on basophils; E2_79-treated basophils
T2 sequence (looked up): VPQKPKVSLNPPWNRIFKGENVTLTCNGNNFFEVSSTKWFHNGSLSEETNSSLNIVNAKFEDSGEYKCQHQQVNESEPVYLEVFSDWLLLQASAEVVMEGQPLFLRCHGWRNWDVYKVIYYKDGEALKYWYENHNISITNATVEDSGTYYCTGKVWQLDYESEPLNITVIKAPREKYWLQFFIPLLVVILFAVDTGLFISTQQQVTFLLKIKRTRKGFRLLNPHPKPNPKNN
Source text: (§1) Blood was drawn from two healthy volunteers and a third volunteer with a history of food allergy ranging in age from 21 to 37 (the protocol for this study was approved by the Institutional Review Board of Stanford University, and all informed consent was obtained from all subjects). Blood was collected in heparin vacutainer tubes (BD), and washed in 10 blood volumes of BF buffer (RPMI-1640 (Life Technologies) supplemented with 10% fetal calf serum (FCS; Gibco) and 1% penicillin/streptomycin (Gibco)). […] The following day cells were washed three times with BF buffer at 4° C. and stained for analysis.
(§2) Stained cells were then lysed with RBS lysis buffer (BioLegend) for 5 min at room temperature, and washed with FACS buffer (PBS pH 7.4 supplemented with 10% FCS). Data were collected on a DxP FACSCAN from Cytek Development in Fremont, Calif. (10 colors with three lasers—488, 639, 407) using FlowJo CE and analyzed using FlowJo (version 10).

CD23 on B cells [3] = target: T1, CD23 on B cells; test: flow cytometry on CD23+ B cells
Source text: as §1, §2

binding result (CD23 on B cells [1]): binds
binding result [2]: binds
B1: IgE-R419N-Fc3-4 (other)
chain: CADSNPRGVSAYLSRPSPFDLFIRKSPTITCLVVDLAPSKGTVNLTWSRASGKPVNHSTRKEEKQRNGTLTVTSTLPVGTRDWIEGETYQCNVTHPHLPRALMRSTTKTSGPRAAPEVYAFATPEWPGSRDKRTLACLIQNFMPEDISVQWLHNEVQLPDARHSTTQPRKTKGSGFFVFSRLEVTRAEWEQKDEFICRAVHEAASPSQTVQRAVSVNP
modifications: additional N-linked glycan at N419 (Asn-92 of SEQ ID NO: 2)
notes: Mammalian derived (HEK-6E); biotinylated in the basophil exchange assays; also called R419N-IgE-Fc3-4; R419N mutant

binding result (CD23 on B cells [3]): binds
binding result [2]: binds
B2: IgE-Fc3-4 (other)
chain: B1 chain with N92R
notes: Made both in insect cells (High Five) and in mammalian cells (HEK-6E); the mammalian protein, biotinylated, was used in the cell assays; also called wild-type IgE-Fc3-4; WT IgE-Fc3-4
